Here are results for three substances from doi:10.1101/2023.08.10.552813.

Common to all, as to assay: SPR
The target of test [1] is Heligmosomoides polygyrus Alarmin Release Inhibitor (HpARI), full-length (Heligmosomoides polygyrus bakeri).
Test [2] has as its target HpARI-LD (full-length HpARI with residues 180-188 of the CCP3 loop deleted) (Heligmosomoides polygyrus bakeri).
Test [3] concerns the target HpARI_CCP1/2 (HpARI with CCP3 truncated) (Heligmosomoides polygyrus bakeri).
For test [4], the target named is HpARI_CCP2/3 (HpARI with CCP1 truncated) (Heligmosomoides polygyrus bakeri).
Test [5] deals with mouse Interleukin 33 (residues 112-270) (mouse).

HpARI_CCP2/3 (HpARI with CCP1 truncated) (Heligmosomoides polygyrus bakeri), sequence (A0A3P7XL18 63-297): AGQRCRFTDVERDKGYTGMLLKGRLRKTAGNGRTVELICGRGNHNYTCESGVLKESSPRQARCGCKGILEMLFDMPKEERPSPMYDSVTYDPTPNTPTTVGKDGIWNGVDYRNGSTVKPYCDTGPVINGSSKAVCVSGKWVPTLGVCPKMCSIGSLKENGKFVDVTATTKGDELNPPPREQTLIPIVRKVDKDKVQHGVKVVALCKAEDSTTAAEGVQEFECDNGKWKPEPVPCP

The Kd is the constant that tells how readily two partners part at equilibrium. The low end stands for higher affinity, the high end for lower affinity. Regarding “mouse Interleukin 33 (residues 112-270) (ligand)”, the Kd in test [1] was determined as 0.048 nM; in test [2], 45 nM; in test [3] it was 49 nM; in test [4], 4 nM. In test [3], the koff, fold over that of full-length HpARI is > 100 fold.

In test [4], mouse IL-33 R159A (ligand) came in with a fold reduction in binding affinity against wild-type mIL-33 of 1000 fold.

“HpARI-LD (full-length HpARI with residues 180-188 of the CCP3 loop deleted) (natural protein)”: in test [5], the percent reduction of mIL-33 binding against HpARI came to 60% and the percent reduction of mIL-33 binding to ST2-Fc is 25%.
